Data as given in the supplement of paper PMC12764529.
± gives the half width of the 95% confidence interval.

Key:
[1] = folding stability dG unfold from trypsin proteolysis; higher = more stable
In short: (§1)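 Digests were run with trypsin and chymotrypsin at 11 concentrations in threefold dilutions, plus a no-protease condition, on designed mini-proteins in a PA-tagged cDNA display construct. The mini-proteins were under 80 residues, had no cysteine, and were kept only when AlphaFold2 dimer inter-PAE was above 15. After sequencing, Bayesian fitting of the counts gave K50, from which unfolding free energy was derived against a sequence-predicted unfolded-state K50 and a shared folded-state K50, per protease or combined.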

[2] = folding stability dG unfold from chymotrypsin proteolysis; higher = more stable
In short: as §1

[3] = folding stability dG unfold (combined trypsin and chymotrypsin); higher = more stable
In short: as §1

Sequence	folding stability dG unfold [1]	folding stability dG unfold [2]	folding stability dG unfold [3]
SAGGSAKTVSIWIPDDLPNMPIEELIKEVMKAFPPGDEIKDIDVEPWPNGGYMYTFTVNGKEVIIWSAGGSA [r15_451_TrROS]	1.29 ± 0.043 kcal/mol	1.93 ± 0.1 kcal/mol	1.78 ± 0.17 kcal/mol
SAGGSAKVIVEELPDGSIKIYFPETGAVIVLNPETGEAVVFVNPKKKNNEPPSLDDVLKAAKEALGSAGGSA [r15_735_TrMRF]	0.413 ± 0.041 kcal/mol	1.6 ± 0.019 kcal/mol	1.28 ± 0.063 kcal/mol
SAGGSAKVKIEFFQMPPGGNPRDMQKKAQDKGDIFIIVNKPGWMIVITADDPEDANTIAKEILEEFSAGGSA [r15_546_TrROS]	0.735 ± 0.086 kcal/mol	1.08 ± 0.11 kcal/mol	0.954 ± 0.092 kcal/mol
SAGGSAKVKIEVSIEVSEDGTITITVRITNENGEELTVTITIKLPPAPTVVYDSEEERKKALEALASAGGSA [r15_1018_TrROS_Hall]	2.9 ± 0.14 kcal/mol	2.2 ± 0.19 kcal/mol	2.38 ± 0.26 kcal/mol
SAGGSAKVKIYLIKLPPNGNPLEVIKKVKEKGGNAIIVSGPGLHAVIEADEPEEAAKKAKEILEKLSAGGSA [r15_546_TrMRF]	0.361 ± 0.1 kcal/mol	0.121 ± 0.2 kcal/mol	0.292 ± 0.097 kcal/mol
SAGGSAKVTIDTDNGIIKIEVGGKLIAEIEIPPGFPGGIYLEYEPNPPTLKFYIYTKNGPVYINDISAGGSA [r2_399_TrMRF]	3.5 ± 0.43 kcal/mol	3.96 ± 0.17 kcal/mol	3.69 ± 0.32 kcal/mol
SAGGSAKVVEIELVEVRRNANGERIVRVRIKLPNGEERTIEMSEEELKELLAKLPPNVEIVAIEEVSAGGSA [r15_339_TrROS_Hall]	1.42 ± 0.077 kcal/mol	1.76 ± 0.043 kcal/mol	1.56 ± 0.15 kcal/mol
SAGGSAKWLPAEELADELADTLMQRHGYEIKNVDVEVIDPDEGYIRVNIEYEHPGGRHKHDIIIPVSAGGSA [r15_32_TrROS]	0.1 ± 0.18 kcal/mol	0.851 ± 0.092 kcal/mol	0.662 ± 0.17 kcal/mol
SAGGSALENLEENEYIVKIEIEKKNKKKIEIVIAGKPEKIKEIEKELKKKGFKILKIEPKKVKDVLSAGGSA [r15_640_TrMRF]	1.45 ± 0.054 kcal/mol	1.59 ± 0.066 kcal/mol	1.56 ± 0.1 kcal/mol
SAGGSALKIMVEPDPEDGTVRVWFMIPNPENGEEFMVQAEIDPNGKIEDVEVYPNGNMIWITFKLPSAGGSA [r15_557_TrROS]	2.4 ± 0.061 kcal/mol	3.36 ± 0.037 kcal/mol	2.96 ± 0.087 kcal/mol
SAGGSALKIPSGKKYTVVVKDPNKPVEYVADVIERHPDSILIEVKDPNSSKTKKITVPTNVITIDLSAGGSA [r15_381_JUSTAS]	-0.095 ± 0.15 kcal/mol	0.684 ± 0.16 kcal/mol	0.464 ± 0.19 kcal/mol
SAGGSALPEDATVKVEVTVVTLVYDPETGGFYLKVAKVEKEIRFDPKNGKLEVKVKKVEVKVFKLGSAGGSA [r15_517_TrMRF]	2.96 ± 0.21 kcal/mol	4.41 ± 0.17 kcal/mol	4.19 ± 0.33 kcal/mol
SAGGSALPPGQEVEITIMIMVMIYNPENGRMWMVMASVEIEIRVDPKNGKLEIKIKKISISIFPMDSAGGSA [r15_517_TrROS]	4.23 ± 0.72 kcal/mol	5.8 ± 0.52 kcal/mol	> 6 kcal/mol
SAGGSALPPHAVRVLVVTATDTDPGAAAARIAEEFRRKYPNTRVLTRPFDVPPGRPAVVAVVYVDESAGGSA [r15_916_TrMRF]	1.15 ± 0.12 kcal/mol	2.54 ± 0.11 kcal/mol	2.08 ± 0.2 kcal/mol
SAGGSAMDAKVVDLSLPFTLSEDGSLTATVTIEFPDGSKVPIEIPGREDGELKLEEILAAAKEALGSAGGSA [r15_233_TrMRF]	0.553 ± 0.093 kcal/mol	0.27 ± 0.069 kcal/mol	0.478 ± 0.14 kcal/mol
SAGGSAMDLKIKKKERDPPNGTKKLTVEVPGWEVEINIERNPDGPYKIEIYAPNPAAKNAIKEFIKSAGGSA [r15_42_TrROS]	-0.275 ± 0.26 kcal/mol	0.488 ± 0.18 kcal/mol	0.324 ± 0.2 kcal/mol
SAGGSAMDPSKLVRKKVRFRVVDPNGKPLGEIDIEVEFPGGVSEEEAEELLRELIAALAPPAGVEGSAGGSA [r15_310_TrMRF]	1.52 ± 0.022 kcal/mol	3.023 ± 0.023 kcal/mol	2.73 ± 0.071 kcal/mol
SAGGSAMEEEKPPKVKVRITVELEDGEKLEIEFETKEEAEEAAEALAKELEEKTGLKIKKIEVEEVSAGGSA [r15_140_TrROS_Hall]	2.77 ± 0.11 kcal/mol	2.96 ± 0.13 kcal/mol	2.81 ± 0.23 kcal/mol
SAGGSAMEIDIDPEKNEIRIYNPWNGQPHPFTIESIEPIDPDNKYFKFKIKYPDTGKEMPFMVQIDSAGGSA [r15_209_TrROS]	0.57 ± 0.042 kcal/mol	1.4 ± 0.15 kcal/mol	1.08 ± 0.12 kcal/mol
SAGGSAMEIKTLETKTVKTEKLPDGSTKVTTTYKTVDPSGGKTSNYIKTTLYAPDGKKTSTEVKEKSAGGSA [r15_758_JUSTAS]	0.355 ± 0.048 kcal/mol	1.03 ± 0.098 kcal/mol	0.773 ± 0.1 kcal/mol
SAGGSAMEKLKEIPGIERIEVKEDGKIIIHVKMSEEERKKLAEALRKEGKVKIEVVPVEVEEEEEESAGGSA [r15_554_TrROS_Hall]	2.83 ± 0.12 kcal/mol	2.03 ± 0.072 kcal/mol	2.3 ± 0.11 kcal/mol

Sequence	folding stability dG unfold [1]	folding stability dG unfold [2]	folding stability dG unfold [3]
SAGGSAMFYLLKVELPDGKVLEIRIEATPEEKEEFVEKIKSHPEVKSVELEPISKEEAEELGFEEISAGGSA [r15_39_TrMRF]	2.62 ± 0.12 kcal/mol	3.274 ± 0.025 kcal/mol	3.08 ± 0.12 kcal/mol
SAGGSAMGMRPVRREFTGSGMRITVEVVESTSIPTAEIRVLDPEGRLLRERRLPAEEVEREIARLLSAGGSA [r15_940_JUSTAS]	1.34 ± 0.069 kcal/mol	1.58 ± 0.092 kcal/mol	1.55 ± 0.096 kcal/mol
SAGGSAMIEIEIVKPNASPEEAEKLEKEVREKLLEEGVPEEVVKEVNIKVIVKPVKKDKNNNPILESAGGSA [r15_684_JUSTAS]	-0.215 ± 0.15 kcal/mol	0.977 ± 0.19 kcal/mol	0.811 ± 0.2 kcal/mol
SAGGSAMIEIKVEVNGKTYRITIEKNEDGTLTLTVYDEKTGKKTEIEIPLENLEELKKLNVKRIEISAGGSA [r15_629_TrROS_Hall]	1.78 ± 0.077 kcal/mol	3.54 ± 0.036 kcal/mol	3.09 ± 0.12 kcal/mol
SAGGSAMIKTSYDPNGKTIYTIPETGAVITVDPSTGKVTVEVDPESQANNPLPEEEVKKLAEEVLKSAGGSA [r15_735_JUSTAS]	0.481 ± 0.049 kcal/mol	1.34 ± 0.018 kcal/mol	1.1 ± 0.043 kcal/mol
SAGGSAMIVIPVDPNDPAAEKTVAEAIAAGKDVIIRSPSGKYTFYKPDGSKKELSSEEEIKKAGLESAGGSA [r15_94_JUSTAS]	0.249 ± 0.086 kcal/mol	-0.495 ± 0.77 kcal/mol	0.0288 ± 0.19 kcal/mol
SAGGSAMKAKEIKRLKLKDRPLVVIFLENPEGGYSVLVIPLENPEKVEELLEELVKEGLLDEITPESAGGSA [r15_575_TrMRF]	1.03 ± 0.031 kcal/mol	1.93 ± 0.082 kcal/mol	1.59 ± 0.074 kcal/mol
SAGGSAMKIEEIEKVELKKNENGELTAKIIIKDKKTNKYIEIEITVKPGMTLEEIKKLAEELLKKLSAGGSA [r15_181_TrROS_Hall]	3.42 ± 0.13 kcal/mol	1.96 ± 0.075 kcal/mol	2.73 ± 0.14 kcal/mol
SAGGSAMKITLKTKDGKEIEIEVEEKTNENGEKYLVLKIKDKKTNKEYTIVMSKEELEELLKKLLSSAGGSA [r15_92_TrROS_Hall]	4.33 ± 0.21 kcal/mol	5.48 ± 0.11 kcal/mol	5.55 ± 0.17 kcal/mol
SAGGSAMKLTFTDSKGRTIEITVEKKYLPNGEPYLIITIKYPDTDEEIVITMPTSNIDEILEKLLNSAGGSA [r15_92_JUSTAS]	4.06 ± 0.32 kcal/mol	4.28 ± 0.11 kcal/mol	4.27 ± 0.24 kcal/mol
SAGGSAMLDNLVPVGSVTVVERFPDGLLRVVNYTFWRDPESGAWYVSADVEVFPLLPEDPVLLEAGSAGGSA [r15_207_TrMRF]	2.24 ± 0.11 kcal/mol	3.88 ± 0.048 kcal/mol	3.6 ± 0.11 kcal/mol
SAGGSAMLENLPELDIKIKVEYKAEILPDGSLLIPAKIELEIGDKKFEFEAKILINPNGEITIEIGSAGGSA [r15_891_TrMRF]	2.97 ± 0.26 kcal/mol	2.45 ± 0.31 kcal/mol	2.96 ± 0.31 kcal/mol
SAGGSAMLPDEVTVKPVEMPVPPDLTLEELEQEVRERAGPGTSVEVSYDPATGVATVTVTDARPALSAGGSA [r15_749_JUSTAS]	-0.162 ± 0.035 kcal/mol	1.44 ± 0.029 kcal/mol	1.03 ± 0.04 kcal/mol
SAGGSAMLRVFEKEHPGPFSITVLAGPGLSEEEIEELAEKLAEKKIEIEKKKIELEKKGKKPIFKKSAGGSA [r15_704_JUSTAS]	0.327 ± 0.21 kcal/mol	0.235 ± 0.43 kcal/mol	0.0936 ± 0.43 kcal/mol
SAGGSAMMTVTITIPKENLTKEEIKKALEEAGAKVVKVEEKDGKVTVTVEMTPEQVEKLKEALKKLSAGGSA [r15_161_TrROS_Hall]	3.98 ± 0.46 kcal/mol	3.53 ± 0.28 kcal/mol	4.14 ± 0.45 kcal/mol
SAGGSAMNPKLEALPEVEITEEKTEEYKTAENKKLLVKEYKSNAEPGKTYKVIYDPETGKVLSVEESAGGSA [r15_66_JUSTAS]	0.0954 ± 0.059 kcal/mol	1.1 ± 0.11 kcal/mol	0.737 ± 0.1 kcal/mol
SAGGSAMPDDPLVLRANIPFVVVGPDGRPRLFRREILVPFASEEEAERFRRELEALGAEVEPVARASAGGSA [r15_117_TrMRF]	1.62 ± 0.051 kcal/mol	2.17 ± 0.13 kcal/mol	1.93 ± 0.12 kcal/mol
SAGGSAMPDLAAAPGVTRVEPYPDGLVEIHLDGSEEARDEIEERLRAAGDFEIYRLPDRDTLLVRASAGGSA [r15_554_TrMRF]	-0.00819 ± 0.26 kcal/mol	-0.165 ± 0.55 kcal/mol	-0.025 ± 0.29 kcal/mol
SAGGSAMPDMTAEELAAEVAKKLPPGEKVLIKIRNKNGETKTFELGEDISDLPADEVTEIEIEVLPSAGGSA [r15_50_TrROS_Hall]	0.248 ± 0.073 kcal/mol	1.05 ± 0.036 kcal/mol	0.781 ± 0.054 kcal/mol
SAGGSAMPLEELKKVTITLSFYNENGELVAEMTLEYDEETDVFTMTVKVRYNGKTYTVEMEFKLLPSAGGSA [r15_278_TrROS_Hall]	4.5 ± 0.56 kcal/mol	5.29 ± 0.2 kcal/mol	5.23 ± 0.32 kcal/mol
SAGGSAMPLLKPPKTIRLRILFKVPEPGKELDITEEAVRELFNPFGAKVRIYRDGDYVLIEVEFVVSAGGSA [r15_377_TrMRF]	4.03 ± 0.097 kcal/mol	3.37 ± 0.089 kcal/mol	3.85 ± 0.15 kcal/mol
